Test results taken from patent US20250032630A1, “B7H4 ANTIBODY-DRUG CONJUGATE AND USE THEREOF” (Duality Biologics (Suzhou) Co., Ltd., priority 2022, published 2025).
Changes are numbered by the printed parent chain.

Experiments:
cynomolgus monkey B7H4 = target: T1, cynomolgus monkey B7H4 (cynomolgus monkey, UniProt A0A2K5U6P5 25-282); assay: flow cytometry on cynomolgus monkey B7H4-transfected HEK293T cells, PE anti-human IgG Fc secondary antibody
T1 construct: whole, on cells; also called Monkey B7H4-293T
T1 sequence: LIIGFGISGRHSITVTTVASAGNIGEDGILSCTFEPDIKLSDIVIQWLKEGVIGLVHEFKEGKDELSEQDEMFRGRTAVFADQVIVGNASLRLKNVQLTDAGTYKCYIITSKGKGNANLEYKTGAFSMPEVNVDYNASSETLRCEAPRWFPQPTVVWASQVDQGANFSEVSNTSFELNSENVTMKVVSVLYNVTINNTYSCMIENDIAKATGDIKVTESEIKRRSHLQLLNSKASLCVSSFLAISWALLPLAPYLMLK

human B7H4 [1] = target: T2, human B7H4 (human, UniProt Q7Z7D3 25-282); assay: cell-based or functional assay
T2 sequence (looked up): T1 sequence with I53L, L242F, A252S

human B7-H7 (HHLA2) = target: T3, human B7-H7 (HHLA2) (human, UniProt Q9UM44 23-414); assay: flow cytometry on CHO-KI cells stably expressing human B7-H7 (HHLA2), one concentration
T3 construct: whole, on cells
T3 sequence (looked up): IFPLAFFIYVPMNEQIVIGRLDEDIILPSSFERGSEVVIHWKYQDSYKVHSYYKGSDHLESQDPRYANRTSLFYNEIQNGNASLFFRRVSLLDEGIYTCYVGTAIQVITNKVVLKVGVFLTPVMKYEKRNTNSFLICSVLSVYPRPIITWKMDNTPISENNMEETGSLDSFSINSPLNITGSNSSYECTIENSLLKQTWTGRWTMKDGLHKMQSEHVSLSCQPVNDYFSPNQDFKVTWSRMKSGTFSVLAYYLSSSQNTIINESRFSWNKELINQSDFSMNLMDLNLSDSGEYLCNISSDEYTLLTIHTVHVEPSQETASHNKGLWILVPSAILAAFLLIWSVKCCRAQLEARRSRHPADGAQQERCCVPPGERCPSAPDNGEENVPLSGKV

human CD276 (B7-H3) = target: T4, human CD276 (B7-H3) (human, UniProt Q5ZPR3 29-534); assay: flow cytometry on HEK293T cells stably expressing the human protein, one concentration
T4 construct: whole, on cells
T4 sequence (looked up): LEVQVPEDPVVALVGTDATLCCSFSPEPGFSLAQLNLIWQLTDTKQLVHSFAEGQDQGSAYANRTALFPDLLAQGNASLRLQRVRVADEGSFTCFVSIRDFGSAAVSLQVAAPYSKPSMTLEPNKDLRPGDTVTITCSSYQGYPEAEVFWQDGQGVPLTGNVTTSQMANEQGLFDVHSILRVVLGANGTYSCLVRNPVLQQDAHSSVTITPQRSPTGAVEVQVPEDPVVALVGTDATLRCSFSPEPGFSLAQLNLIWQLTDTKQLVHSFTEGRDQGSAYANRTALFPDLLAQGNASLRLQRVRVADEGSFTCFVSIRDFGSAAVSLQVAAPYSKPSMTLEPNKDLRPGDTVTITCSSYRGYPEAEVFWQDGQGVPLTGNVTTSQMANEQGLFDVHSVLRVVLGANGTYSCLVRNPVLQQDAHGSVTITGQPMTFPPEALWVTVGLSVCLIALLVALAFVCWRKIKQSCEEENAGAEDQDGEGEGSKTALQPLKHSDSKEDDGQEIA

human CD86 (B7-2) = target: T5, human CD86 (B7-2) (human, UniProt P42081 24-329); assay: as above
T5 construct: whole, on cells
T5 sequence (looked up): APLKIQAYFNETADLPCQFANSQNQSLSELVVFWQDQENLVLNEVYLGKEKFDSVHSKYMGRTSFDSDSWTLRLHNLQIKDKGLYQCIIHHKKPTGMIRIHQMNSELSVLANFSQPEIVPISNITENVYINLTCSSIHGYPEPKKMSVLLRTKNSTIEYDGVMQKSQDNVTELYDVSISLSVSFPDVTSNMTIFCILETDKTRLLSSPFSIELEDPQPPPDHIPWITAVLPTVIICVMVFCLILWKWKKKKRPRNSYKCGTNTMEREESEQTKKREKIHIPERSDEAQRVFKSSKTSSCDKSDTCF

human VISTA (B7-H5) = target: T6, human VISTA (B7-H5) (human, UniProt Q9H7M9 33-311); assay: as above
T6 construct: whole, on cells
T6 sequence (looked up): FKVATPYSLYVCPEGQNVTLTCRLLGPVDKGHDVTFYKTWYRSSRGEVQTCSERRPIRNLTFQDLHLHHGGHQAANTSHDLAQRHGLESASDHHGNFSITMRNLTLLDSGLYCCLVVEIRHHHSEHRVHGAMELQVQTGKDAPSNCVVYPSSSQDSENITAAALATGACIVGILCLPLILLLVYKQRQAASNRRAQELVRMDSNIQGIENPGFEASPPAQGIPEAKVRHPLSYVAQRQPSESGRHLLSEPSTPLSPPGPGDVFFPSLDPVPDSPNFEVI

mouse B7H4 = target: T7, mouse B7H4 (mouse, UniProt Q7TSP5 25-257); assay: flow cytometry on mouse B7H4-transfected HEK293T cells, PE anti-human IgG Fc secondary antibody
T7 construct: whole, on cells; also called Mouse B7H4-293T
T7 sequence (looked up): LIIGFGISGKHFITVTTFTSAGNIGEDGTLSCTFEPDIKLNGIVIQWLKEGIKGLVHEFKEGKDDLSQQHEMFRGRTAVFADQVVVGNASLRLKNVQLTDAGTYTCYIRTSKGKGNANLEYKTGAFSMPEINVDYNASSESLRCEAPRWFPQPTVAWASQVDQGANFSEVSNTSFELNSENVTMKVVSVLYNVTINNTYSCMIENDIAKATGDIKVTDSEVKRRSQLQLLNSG

human B7H4 [2] = target: T2, human B7H4; assay: cell-based or functional assay; remark: listed apart in the source

B1: antibody-drug conjugate DB1001-X2 (antibody, DAR 5.4, V domains shown)
VH: QVQLVESGGGVVQPGRSLRLSCAASGFTFRSFGMHWVRQAPGKGLEWVAVISYDASNEYYADSVKGRFIISRDNSKDTLYLQMNSLRAGDTAVYYCAKGGALRWYFAYWGQGTLVTVSS
VL: EIVMTQSPATLSVSPGERATLSCRASQSISSNLGWYQQKPGQAPRLLIYGASTRATGIPARFSGSGSGTEFTLTISSLQSEDFAVYYCQQYRSWPPLTFGGGTKVEIKR
modifications: linker-cytotoxin X2 (payload P-III-30) coupled after TCEP reduction of the antibody; drug-to-antibody ratio (DAR) of 5.4; conjugation residues not stated
notes: also called anti-B7H4 ADC DB1001-X2
In the case of B1, the EC50 (cynomolgus monkey B7H4) is reported as 5.36 nM, the “IC50 (nM), proliferation inhibition of MX-1 cells with high expression of B7H4 (3D culture, CTG)” value (human B7H4 [1]) is reported as 52.4 nM and the “IC50 (nM), proliferation inhibition of RL95-2 cells with low expression of B7H4 (3D culture, CTG)” value (human B7H4 [1]) is reported as 69.4 nM. B1: no binding (tested: 100 nM or 300 nM) (human B7-H7 (HHLA2)); no binding (tested: 100 nM or 300 nM) (human CD276 (B7-H3)); no binding (tested: 100 nM or 300 nM) (human CD86 (B7-2)). The binding result (human VISTA (B7-H5)) was “no binding (tested: 100 nM or 300 nM)”, the binding result (mouse B7H4) was “no binding (tested: highest concentration 100 nM)” and the “Fold over blank control, endocytosis by MDA-MB-468 cells” value (human B7H4 [2]) was 2.4 fold.
